Assays:
ST-pro-factor D-His = ST-pro-factor D-His (UniProt P00746)
pro-factor D-His = pro-factor D-His (UniProt P00746)

Sequence of full length wild type recombinant human MASP-3 (chain): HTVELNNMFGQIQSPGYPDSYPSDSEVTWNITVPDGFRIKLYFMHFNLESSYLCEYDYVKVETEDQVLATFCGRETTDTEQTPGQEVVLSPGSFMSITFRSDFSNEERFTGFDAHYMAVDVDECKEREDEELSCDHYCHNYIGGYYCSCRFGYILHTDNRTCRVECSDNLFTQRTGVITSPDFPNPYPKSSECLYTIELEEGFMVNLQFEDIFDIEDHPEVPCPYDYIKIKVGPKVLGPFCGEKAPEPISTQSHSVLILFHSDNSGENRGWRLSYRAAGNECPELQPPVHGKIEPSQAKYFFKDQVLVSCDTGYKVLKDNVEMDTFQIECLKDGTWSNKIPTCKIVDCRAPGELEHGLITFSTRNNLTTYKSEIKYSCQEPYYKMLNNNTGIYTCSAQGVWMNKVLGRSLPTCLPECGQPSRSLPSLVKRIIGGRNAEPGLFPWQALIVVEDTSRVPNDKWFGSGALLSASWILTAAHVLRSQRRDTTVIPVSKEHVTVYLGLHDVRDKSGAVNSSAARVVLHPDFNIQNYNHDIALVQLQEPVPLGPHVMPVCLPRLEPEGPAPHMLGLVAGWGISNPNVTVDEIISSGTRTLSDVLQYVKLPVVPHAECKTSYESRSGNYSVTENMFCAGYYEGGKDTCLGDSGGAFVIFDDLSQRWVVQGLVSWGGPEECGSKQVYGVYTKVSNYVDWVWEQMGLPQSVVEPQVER

catalytically-inactive full length MASP-3 (S679A)
cleavage of pro-factor D (Western blot) (ST-pro-factor D-His): The catalytically-inactive full length MASP-3 (S679A; lane 3) and MASP-1 (S646A; lane 3) failed to cleave either substrate | cleavage of pro-factor D (Western blot) (pro-factor D-His): The catalytically-inactive full length MASP-3 (S679A; lane 3) and MASP-1 (S646A; lane 3) failed to cleave either substrate

full length wild type recombinant human MASP-3
cleavage of pro-factor D (Western blot) (ST-pro-factor D-His): only full length MASP-3 (lane 2) and the MASP-1 CCP1-CCP2-SP) fragment (lane 5) cleaved ST-pro-factor D-His6 | cleavage of pro-factor D (Western blot) (pro-factor D-His): Identical results were obtained with the pro-factor D-His6 polypeptide (not shown)
